# The supplement of paper PMC9112550, “Optimization of the antimicrobial peptide Bac7 by deep mutational scanning” (BMC Biology, 2022)
# Test system: Escherichia coli TOP10
# Experiment: shrunken log2 fold change of peptide-encoding DNA abundance (4.5 h post-induction vs induction); higher = less antimicrobial activity (less host growth inhibition)
# Conditions: time post-induction: 4.5 h; library: site-saturation at positions 5, 18, 19, 20
# 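Note: peptides expressed intracellularly from a pBAD plasmid library in pooled LB shake-flask culture, induced with 0.3% L-arabinose, DNA abundance read by NGS, three biological replicates, DESeq2 with apeglm shrinkage.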
row,Sequence,shrunken log2 fold change
1,RRIRSRPPRLPRPRPRPCPNPRP,-0.209
2,RRIRDRPPRLPRPRPRPNFQPRP,0.151
3,RRIRWRPPRLPRPRPRPICEPRP,0.389
4,RRIRGRPPRLPRPRPRPIQYPRP,-0.0751
5,RRIRMRPPRLPRPRPRPMMDPRP,0.0325
6,RRIRCRPPRLPRPRPRPQMRPRP,0.611
7,RRIRNRPPRLPRPRPRPRASPRP,0.211
8,RRIRNRPPRLPRPRPRPAYLPRP,-0.284
9,RRIRLRPPRLPRPRPRPLEDPRP,-0.076
10,RRIRHRPPRLPRPRPRPPTIPRP,0.215
11,RRIRIRPPRLPRPRPRPSGLPRP,0.0161
12,RRIRRRPPRLPRPRPRPDIFPRP,0.0756
13,RRIRNRPPRLPRPRPRPKLHPRP,-0.0882
14,RRIRHRPPRLPRPRPRPQYEPRP,-0.0461
15,RRIRPRPPRLPRPRPRPYKSPRP,-0.0798
16,RRIRKRPPRLPRPRPRPMANPRP,0.0288
17,RRIRMRPPRLPRPRPRPANNPRP,-0.264
18,RRIRLRPPRLPRPRPRPSSKPRP,-0.524
19,RRIRPRPPRLPRPRPRPMKCPRP,-0.00631
20,RRIRYRPPRLPRPRPRPNYAPRP,-0.223
21,RRIRLRPPRLPRPRPRPECLPRP,-0.00237
22,RRIRDRPPRLPRPRPRPATRPRP,0.701
23,RRIRSRPPRLPRPRPRPDSGPRP,-0.02
24,RRIRYRPPRLPRPRPRPCNWPRP,-0.0748
25,RRIRSRPPRLPRPRPRPQEKPRP,-0.393

row,Sequence,shrunken log2 fold change
1,RRIRIRPPRLPRPRPRPSLTPRP,-1.12
2,RRIRNRPPRLPRPRPRPNKPPRP,-0.122
3,RRIRARPPRLPRPRPRPTSYPRP,-0.0752
4,RRIRKRPPRLPRPRPRPRLMPRP,0.989
5,RRIRSRPPRLPRPRPRPCNCPRP,0.0508
6,RRIRQRPPRLPRPRPRPPNDPRP,0.0155
7,RRIRGRPPRLPRPRPRPPTAPRP,1.01
8,RRIRARPPRLPRPRPRPWWWPRP,0.0143
9,RRIRQRPPRLPRPRPRPNDWPRP,0.142
10,RRIRSRPPRLPRPRPRPACPPRP,0.413
11,RRIRKRPPRLPRPRPRPCEDPRP,0.563
12,RRIRCRPPRLPRPRPRPCSSPRP,0.0866
13,RRIRNRPPRLPRPRPRPKQEPRP,0.0268
14,RRIRIRPPRLPRPRPRPFVGPRP,-0.134
15,RRIRGRPPRLPRPRPRPNDLPRP,0.338
16,RRIRERPPRLPRPRPRPQRIPRP,-0.0866
17,RRIRIRPPRLPRPRPRPQTAPRP,0.101
18,RRIRCRPPRLPRPRPRPKDYPRP,-0.644
19,RRIRMRPPRLPRPRPRPTTLPRP,0.34
20,RRIRGRPPRLPRPRPRPNNEPRP,0.306
21,RRIRARPPRLPRPRPRPFIEPRP,0.0738
22,RRIRVRPPRLPRPRPRPRSCPRP,0.0646
23,RRIRMRPPRLPRPRPRPRHCPRP,0.28
24,RRIRKRPPRLPRPRPRPPPEPRP,1.32
25,RRIRIRPPRLPRPRPRPGENPRP,-0.0334

row,Sequence,shrunken log2 fold change
1,RRIRTRPPRLPRPRPRPVSAPRP,0.252
2,RRIRWRPPRLPRPRPRPHFHPRP,-0.596
3,RRIRCRPPRLPRPRPRPGANPRP,0.385
4,RRIRFRPPRLPRPRPRPAKSPRP,-0.135
5,RRIRMRPPRLPRPRPRPAMRPRP,1.14
6,RRIRYRPPRLPRPRPRPIGNPRP,0.167
7,RRIRWRPPRLPRPRPRPCFWPRP,0.213
8,RRIRPRPPRLPRPRPRPHTWPRP,-0.0512
9,RRIRRRPPRLPRPRPRPAPCPRP,0.884
10,RRIRRRPPRLPRPRPRPAESPRP,0.256
11,RRIRKRPPRLPRPRPRPKEEPRP,0.0277
12,RRIRERPPRLPRPRPRPWPIPRP,-0.679
13,RRIRGRPPRLPRPRPRPDWNPRP,0.361
14,RRIRNRPPRLPRPRPRPRWKPRP,-0.109
15,RRIRERPPRLPRPRPRPFPPPRP,-0.38
16,RRIRDRPPRLPRPRPRPNHNPRP,-0.539
17,RRIRARPPRLPRPRPRPAYHPRP,-0.0226
18,RRIRSRPPRLPRPRPRPMIPPRP,-0.109
19,RRIRPRPPRLPRPRPRPWINPRP,-0.719
20,RRIRQRPPRLPRPRPRPWQLPRP,-0.0199
21,RRIRNRPPRLPRPRPRPPRYPRP,0.0834
22,RRIRERPPRLPRPRPRPDMSPRP,-0.064
23,RRIRTRPPRLPRPRPRPDVWPRP,0.33
24,RRIRERPPRLPRPRPRPIAQPRP,-0.0491
25,RRIRARPPRLPRPRPRPVVIPRP,0.206

row,Sequence,shrunken log2 fold change
1,RRIRDRPPRLPRPRPRPPACPRP,0.0727
2,RRIRDRPPRLPRPRPRPRCKPRP,-0.0316
3,RRIRHRPPRLPRPRPRPAQKPRP,-0.0418
4,RRIRERPPRLPRPRPRPAWEPRP,0.506
5,RRIRIRPPRLPRPRPRPMCSPRP,-0.119
6,RRIRMRPPRLPRPRPRPRAFPRP,0.918
7,RRIRWRPPRLPRPRPRPMYPPRP,-0.245
8,RRIRQRPPRLPRPRPRPDGRPRP,0.0192
9,RRIRCRPPRLPRPRPRPQKPPRP,0.0368
10,RRIRRRPPRLPRPRPRPCIQPRP,-0.271
11,RRIRHRPPRLPRPRPRPDQLPRP,-0.51
12,RRIRVRPPRLPRPRPRPPTGPRP,0.245
13,RRIRERPPRLPRPRPRPAGRPRP,0.0837
14,RRIRPRPPRLPRPRPRPMYIPRP,-0.0479
15,RRIRSRPPRLPRPRPRPIACPRP,0.12
16,RRIRPRPPRLPRPRPRPIIHPRP,-0.707
17,RRIRSRPPRLPRPRPRPIRKPRP,0.143
18,RRIRYRPPRLPRPRPRPAEQPRP,0.0374
19,RRIRKRPPRLPRPRPRPNDNPRP,-0.076
20,RRIRTRPPRLPRPRPRPSVCPRP,-0.203
21,RRIRGRPPRLPRPRPRPIFFPRP,0.237
22,RRIRKRPPRLPRPRPRPRCSPRP,0.305
23,RRIRTRPPRLPRPRPRPGGTPRP,-0.00579
24,RRIRFRPPRLPRPRPRPRCNPRP,-0.0427
25,RRIRCRPPRLPRPRPRPFPDPRP,-0.415

row,Sequence,shrunken log2 fold change
1,RRIRTRPPRLPRPRPRPCELPRP,-0.271
2,RRIRFRPPRLPRPRPRPWNHPRP,-0.141
3,RRIRSRPPRLPRPRPRPKKQPRP,0.0417
4,RRIRGRPPRLPRPRPRPWLNPRP,-0.00435
5,RRIRTRPPRLPRPRPRPNLEPRP,-0.0562
6,RRIRDRPPRLPRPRPRPHVIPRP,-0.0856
7,RRIRDRPPRLPRPRPRPCSIPRP,-0.0309
8,RRIRCRPPRLPRPRPRPKRYPRP,-0.0053
9,RRIRGRPPRLPRPRPRPYKVPRP,-0.0404
10,RRIRIRPPRLPRPRPRPYLWPRP,-0.156
11,RRIRNRPPRLPRPRPRPQKRPRP,-0.034
12,RRIRERPPRLPRPRPRPRVWPRP,0.387
13,RRIRRRPPRLPRPRPRPNCYPRP,-0.0134
14,RRIRSRPPRLPRPRPRPTKVPRP,-0.213
15,RRIRFRPPRLPRPRPRPTSDPRP,-0.206
16,RRIRGRPPRLPRPRPRPFLHPRP,0.0811
17,RRIRIRPPRLPRPRPRPQIGPRP,-0.451
18,RRIRARPPRLPRPRPRPILIPRP,-0.374
19,RRIRHRPPRLPRPRPRPLDTPRP,0.0608
20,RRIRFRPPRLPRPRPRPWFYPRP,-0.587
21,RRIRQRPPRLPRPRPRPRVKPRP,0.103
22,RRIRYRPPRLPRPRPRPYILPRP,-0.264
23,RRIRIRPPRLPRPRPRPNNKPRP,-0.85
24,RRIRDRPPRLPRPRPRPENRPRP,-0.0191
25,RRIRFRPPRLPRPRPRPSAAPRP,0.346

row,Sequence,shrunken log2 fold change
1,RRIRPRPPRLPRPRPRPNWFPRP,0.283
2,RRIRDRPPRLPRPRPRPLNMPRP,0.111
3,RRIRCRPPRLPRPRPRPNPPPRP,0.557
4,RRIRGRPPRLPRPRPRPAWMPRP,0.554
5,RRIRLRPPRLPRPRPRPEAKPRP,0.0204
6,RRIRCRPPRLPRPRPRPQICPRP,0.0827
7,RRIRCRPPRLPRPRPRPKHVPRP,-0.155
8,RRIRMRPPRLPRPRPRPFQHPRP,0.0658
9,RRIRLRPPRLPRPRPRPCQSPRP,-0.0018
10,RRIRARPPRLPRPRPRPQMQPRP,0.508
11,RRIRPRPPRLPRPRPRPCHTPRP,-0.498
12,RRIRPRPPRLPRPRPRPTIYPRP,-0.413
13,RRIRWRPPRLPRPRPRPASFPRP,-0.0603
14,RRIRNRPPRLPRPRPRPQRTPRP,-0.248
15,RRIRARPPRLPRPRPRPWQHPRP,0.0196
16,RRIRVRPPRLPRPRPRPLQAPRP,0.432
17,RRIRNRPPRLPRPRPRPCEMPRP,0.019
18,RRIRSRPPRLPRPRPRPAFYPRP,-0.166
19,RRIRARPPRLPRPRPRPPCEPRP,0.716
20,RRIRPRPPRLPRPRPRPKAWPRP,-0.0274
21,RRIRCRPPRLPRPRPRPLAKPRP,1.69
22,RRIRKRPPRLPRPRPRPWDSPRP,0.0485
23,RRIRRRPPRLPRPRPRPGYHPRP,0.456
24,RRIRNRPPRLPRPRPRPFNHPRP,-1.02
25,RRIRQRPPRLPRPRPRPDGDPRP,-0.0112
